# Assay results reported in IntAct's records for PubMed 25910212.
# B1: Homeobox protein SIX1 (Homo sapiens), Q15475 (parent)
# chain: MSMLPSFGFTQEQVACVCEVLQQGGNLERLGRFLWSLPACDHLHKNESVLKAKAVVAFHRGNFRELYKILESHQFSPHNHPKLQQLWLKAHYVEAEKLRGRPLGAVGKYRVRRKFPLPRTIWDGEETSYCFKEKSRGVLREWYAHNPYPSPREKRELAEATGLTTTQVSNWFKNRRQRDRAAEAKERENTENNNSSSNKQNQLSPLEGGKPLMSSSEEEFSPPQSPDQNSVLLLQGNMGHARSSNYSLPGLTASQPSHGLQTHQHQLQDSLLGPLTSSLVDLGS
# partner: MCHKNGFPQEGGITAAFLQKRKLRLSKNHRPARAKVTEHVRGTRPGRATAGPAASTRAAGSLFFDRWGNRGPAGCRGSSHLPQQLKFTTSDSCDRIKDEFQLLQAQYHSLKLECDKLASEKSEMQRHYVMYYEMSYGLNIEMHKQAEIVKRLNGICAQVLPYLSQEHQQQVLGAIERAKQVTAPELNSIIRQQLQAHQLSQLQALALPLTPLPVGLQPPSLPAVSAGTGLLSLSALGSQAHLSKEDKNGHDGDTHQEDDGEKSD
# B2: Mothers against decapentaplegic homolog 3 (Homo sapiens), P84022 (parent)
# chain: MSSILPFTPPIVKRLLGWKKGEQNGQEEKWCEKAVKSLVKKLKKTGQLDELEKAITTQNVNTKCITIPRSLDGRLQVSHRKGLPHVIYCRLWRWPDLHSHHELRAMELCEFAFNMKKDEVCVNPYHYQRVETPVLPPVLVPRHTEIPAEFPPLDDYSHSIPENTNFPAGIEPQSNIPETPPPGYLSEDGETSDHQMNHSMDAGSPNLSPNPMSPAHNNLDLQPVTYCEPAFWCSISYYELNQRVGETFHASQPSMTVDGFTDPSNSERFCLGLLSNVNRNAAVELTRRHIGRGVRLYYIGGEVFAECLSDSAIFVQSPNCNQRYGWHPATVCKIPPGCNLKIFNNQEFAALLAQSVNQGFEAVYQLTRMCTIRMSFVKGWGAEYRRQTVTSTPCWIELHLNGPLQWLDKVLTQMGSPSIRCSSVS
# partner: B1 partner
# B3: Keratin, type II cytoskeletal 2 epidermal (Homo sapiens), P35908 (parent)
# chain: MSCQISCKSRGRGGGGGGFRGFSSGSAVVSGGSRRSTSSFSCLSRHGGGGGGFGGGGFGSRSLVGLGGTKSISISVAGGGGGFGAAGGFGGRGGGFGGGSSFGGGSGFSGGGFGGGGFGGGRFGGFGGPGGVGGLGGPGGFGPGGYPGGIHEVSVNQSLLQPLNVKVDPEIQNVKAQEREQIKTLNNKFASFIDKVRFLEQQNQVLQTKWELLQQMNVGTRPINLEPIFQGYIDSLKRYLDGLTAERTSQNSELNNMQDLVEDYKKKYEDEINKRTAAENDFVTLKKDVDNAYMIKVELQSKVDLLNQEIEFLKVLYDAEISQIHQSVTDTNVILSMDNSRNLDLDSIIAEVKAQYEEIAQRSKEEAEALYHSKYEELQVTVGRHGDSLKEIKIEISELNRVIQRLQGEIAHVKKQCKNVQDAIADAEQRGEHALKDARNKLNDLEEALQQAKEDLARLLRDYQELMNVKLALDVEIATYRKLLEGEECRMSGDLSSNVTVSVTSSTISSNVASKAAFGGSGGRGSSSGGGYSSGSSSYGSGGRQSGSRGGSGGGGSISGGGYGSGGGSGGRYGSGGGSKGGSISGGGYGSGGGKHSSGGGSRGGSSSGGGYGSGGGGSSSVKGSSGEAFGSSVTFSFR
# partner: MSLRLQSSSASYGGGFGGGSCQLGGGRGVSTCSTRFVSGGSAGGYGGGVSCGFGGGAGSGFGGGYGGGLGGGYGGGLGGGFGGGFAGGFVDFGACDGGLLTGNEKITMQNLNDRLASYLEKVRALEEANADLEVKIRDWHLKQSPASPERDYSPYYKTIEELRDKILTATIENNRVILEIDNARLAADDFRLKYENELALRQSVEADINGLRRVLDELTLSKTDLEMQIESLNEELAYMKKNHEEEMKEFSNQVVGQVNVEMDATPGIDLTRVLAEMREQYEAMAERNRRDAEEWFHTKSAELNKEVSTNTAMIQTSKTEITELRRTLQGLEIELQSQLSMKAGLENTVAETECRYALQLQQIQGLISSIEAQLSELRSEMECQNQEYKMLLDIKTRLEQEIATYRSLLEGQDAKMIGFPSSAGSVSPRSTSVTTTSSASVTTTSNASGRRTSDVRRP
# B4: ATP synthase mitochondrial F1 complex assembly factor 2 (Homo sapiens), Q8N5M1 (parent)
# chain: MWRSCLRLRDGGRRLLNRPAGGPSASMSPGPTIPSPARAYAPPTERKRFYQNVSITQGEGGFEINLDHRKLKTPQAKLFTVPSEALAIAVATEWDSQQDTIKYYTMHLTTLCNTSLDNPTQRNKDQLIRAAVKFLDTDTICYRVEEPETLVELQRNEWDPIIEWAEKRYGVEISSSTSIMGPSIPAKTREVLVSHLASYNTWALQGIEFVAAQLKSMVLTLGLIDLRLTVEQAVLLSRLEEEYQIQKWGNIEWAHDYELQELRARTAAGTLFIHLCSESTTVKHKLLKE
# partner: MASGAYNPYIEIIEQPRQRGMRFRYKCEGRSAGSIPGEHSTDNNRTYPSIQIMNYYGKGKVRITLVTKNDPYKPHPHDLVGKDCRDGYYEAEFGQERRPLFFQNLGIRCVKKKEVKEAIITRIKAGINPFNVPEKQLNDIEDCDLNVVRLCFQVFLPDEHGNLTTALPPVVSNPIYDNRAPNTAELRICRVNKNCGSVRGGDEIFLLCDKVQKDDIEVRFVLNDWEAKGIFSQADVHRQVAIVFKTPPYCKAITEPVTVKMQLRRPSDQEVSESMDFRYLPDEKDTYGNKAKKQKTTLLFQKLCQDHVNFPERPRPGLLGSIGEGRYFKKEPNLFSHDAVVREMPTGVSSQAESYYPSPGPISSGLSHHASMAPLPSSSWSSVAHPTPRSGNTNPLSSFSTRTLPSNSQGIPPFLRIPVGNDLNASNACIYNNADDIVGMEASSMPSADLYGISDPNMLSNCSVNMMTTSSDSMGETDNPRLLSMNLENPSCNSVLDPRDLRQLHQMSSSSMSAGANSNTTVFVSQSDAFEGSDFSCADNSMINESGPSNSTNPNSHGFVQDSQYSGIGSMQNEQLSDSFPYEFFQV
# B5: Cyclin-dependent kinase 4 inhibitor C (Homo sapiens), P42773 (parent)
# chain: MAEPWGNELASAAARGDLEQLTSLLQNNVNVNAQNGFGRTALQVMKLGNPEIARRLLLRGANPDLKDRTGFAVIHDAARAGFLDTLQTLLEFQADVNIEDNEGNLPLHLAAKEGHLRVVEFLVKHTASNVGHRNHKGDTACDLARLYGRNEVVSLMQANGAGGATNLQ
# partner: B4 partner
# Variants of: B1
# Details: with TLE5, Q08117-2
row,Variant,effect of a mutation on the interaction
1,MSMLPSFGFTQEQVACVCEVLQQGGNLERLGRFLWSLPACDHLHKNESVLKAKAVVAFHRGNFRELYKILESHQFSPHNHPKLQQLWLKAHYVEAEKLRGRPLGAVGKYRVRRKFPLPRTIWDGEETSYCFKEKSRGVLREWYAHNPYPSPREKRELAEATGLTTTQVSNWFKNRRQRDRAAEAKERENTENNNSSSNKQNQLSPLEGGKPLMSSSEEEFSPPQSPYQNSVLLLQGNMGHARSSNYSLPGLTASQPSHGLQTHQHQLQDSLLGPLTSSLVDLGS [D227Y],with no effect
2,MSMLPSFGFTQEQVACVCEVLQQGGNLERLGRFLWSLPACDHLHKNESVLKAKAVVAFHRGNFRELYKILESHQFSPHNHPKLQQLWLKAHYVEAEKLRGRPLGAVGKYWVRRKFPLPRTIWDGEETSYCFKEKSRGVLREWYAHNPYPSPREKRELAEATGLTTTQVSNWFKNRRQRDRAAEAKERENTENNNSSSNKQNQLSPLEGGKPLMSSSEEEFSPPQSPDQNSVLLLQGNMGHARSSNYSLPGLTASQPSHGLQTHQHQLQDSLLGPLTSSLVDLGS [R110W],with no effect

# Variants of: B2
# Details: with TLE5, Q08117-2
row,Variant,effect of a mutation on the interaction
1,I170V,with no effect
2,N197I,with no effect

# Variants of: B3
# Details: with KRT13, P13646
row,Variant,effect of a mutation on the interaction
1,G219D,with no effect
2,I477N,disrupting interaction strength
3,L484P,with no effect
4,N186K,with no effect

# Variants of: B4
# Details: with REL
row,Variant,effect of a mutation on the interaction
1,MWRSCLRLRDGGRRLLNRPAGGPSASMSPGPTIPSPARAYAPPTERKRFYQNVSITQGEGGFEINLDHRKLKTPQAKLFTVPSEALAIAVATERDSQQDTIKYYTMHLTTLCNTSLDNPTQRNKDQLIRAAVKFLDTDTICYRVEEPETLVELQRNEWDPIIEWAEKRYGVEISSSTSIMGPSIPAKTREVLVSHLASYNTWALQGIEFVAAQLKSMVLTLGLIDLRLTVEQAVLLSRLEEEYQIQKWGNIEWAHDYELQELRARTAAGTLFIHLCSESTTVKHKLLKE [W94R],disrupting interaction strength

# Variants of: B5
# Details: with REL
row,Variant,effect of a mutation on the interaction
1,MAEPWGNELASAAARGDLEQLTSLLQNNVNLNAQNGFGRTALQVMKLGNPEIARRLLLRGANPDLKDRTGFAVIHDAARAGFLDTLQTLLEFQADVNIEDNEGNLPLHLAAKEGHLRVVEFLVKHTASNVGHRNHKGDTACDLARLYGRNEVVSLMQANGAGGATNLQ,disrupting interaction strength
